Read-outs that look alike come from different tables or passages of the source.
T1: human guanylate cyclase 1 (GC1) (human, UniProt Q02846 52-1103)
T1 sequence (looked up): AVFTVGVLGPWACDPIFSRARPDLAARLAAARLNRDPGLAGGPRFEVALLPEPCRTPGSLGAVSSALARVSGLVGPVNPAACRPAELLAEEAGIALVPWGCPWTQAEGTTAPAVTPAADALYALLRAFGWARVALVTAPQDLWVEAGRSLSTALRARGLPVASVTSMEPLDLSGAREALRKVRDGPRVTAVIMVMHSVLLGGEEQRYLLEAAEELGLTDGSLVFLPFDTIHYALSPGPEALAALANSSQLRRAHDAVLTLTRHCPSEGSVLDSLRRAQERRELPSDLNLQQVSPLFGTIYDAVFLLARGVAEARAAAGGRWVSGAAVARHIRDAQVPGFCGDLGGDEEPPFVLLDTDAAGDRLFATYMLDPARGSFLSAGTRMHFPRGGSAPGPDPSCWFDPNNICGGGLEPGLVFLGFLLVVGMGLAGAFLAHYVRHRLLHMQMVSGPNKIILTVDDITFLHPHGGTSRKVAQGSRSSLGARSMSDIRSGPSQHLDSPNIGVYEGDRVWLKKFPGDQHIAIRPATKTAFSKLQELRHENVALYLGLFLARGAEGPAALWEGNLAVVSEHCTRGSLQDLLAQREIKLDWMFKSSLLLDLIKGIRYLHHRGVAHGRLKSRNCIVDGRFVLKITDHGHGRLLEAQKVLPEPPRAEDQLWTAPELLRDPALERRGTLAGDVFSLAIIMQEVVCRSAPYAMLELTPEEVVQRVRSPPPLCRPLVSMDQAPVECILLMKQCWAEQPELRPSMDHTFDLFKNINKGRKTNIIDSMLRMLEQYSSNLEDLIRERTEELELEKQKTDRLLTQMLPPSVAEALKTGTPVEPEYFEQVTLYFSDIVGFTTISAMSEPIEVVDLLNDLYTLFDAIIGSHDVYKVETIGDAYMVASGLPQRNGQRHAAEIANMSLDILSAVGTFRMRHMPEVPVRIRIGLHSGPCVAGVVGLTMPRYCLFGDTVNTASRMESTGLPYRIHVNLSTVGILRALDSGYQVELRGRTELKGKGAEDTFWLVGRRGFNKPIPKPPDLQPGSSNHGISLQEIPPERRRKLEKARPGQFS

T2: human guanylate cyclase 2 (GC2) (human, UniProt P51841 51-1108)
T2 sequence (looked up): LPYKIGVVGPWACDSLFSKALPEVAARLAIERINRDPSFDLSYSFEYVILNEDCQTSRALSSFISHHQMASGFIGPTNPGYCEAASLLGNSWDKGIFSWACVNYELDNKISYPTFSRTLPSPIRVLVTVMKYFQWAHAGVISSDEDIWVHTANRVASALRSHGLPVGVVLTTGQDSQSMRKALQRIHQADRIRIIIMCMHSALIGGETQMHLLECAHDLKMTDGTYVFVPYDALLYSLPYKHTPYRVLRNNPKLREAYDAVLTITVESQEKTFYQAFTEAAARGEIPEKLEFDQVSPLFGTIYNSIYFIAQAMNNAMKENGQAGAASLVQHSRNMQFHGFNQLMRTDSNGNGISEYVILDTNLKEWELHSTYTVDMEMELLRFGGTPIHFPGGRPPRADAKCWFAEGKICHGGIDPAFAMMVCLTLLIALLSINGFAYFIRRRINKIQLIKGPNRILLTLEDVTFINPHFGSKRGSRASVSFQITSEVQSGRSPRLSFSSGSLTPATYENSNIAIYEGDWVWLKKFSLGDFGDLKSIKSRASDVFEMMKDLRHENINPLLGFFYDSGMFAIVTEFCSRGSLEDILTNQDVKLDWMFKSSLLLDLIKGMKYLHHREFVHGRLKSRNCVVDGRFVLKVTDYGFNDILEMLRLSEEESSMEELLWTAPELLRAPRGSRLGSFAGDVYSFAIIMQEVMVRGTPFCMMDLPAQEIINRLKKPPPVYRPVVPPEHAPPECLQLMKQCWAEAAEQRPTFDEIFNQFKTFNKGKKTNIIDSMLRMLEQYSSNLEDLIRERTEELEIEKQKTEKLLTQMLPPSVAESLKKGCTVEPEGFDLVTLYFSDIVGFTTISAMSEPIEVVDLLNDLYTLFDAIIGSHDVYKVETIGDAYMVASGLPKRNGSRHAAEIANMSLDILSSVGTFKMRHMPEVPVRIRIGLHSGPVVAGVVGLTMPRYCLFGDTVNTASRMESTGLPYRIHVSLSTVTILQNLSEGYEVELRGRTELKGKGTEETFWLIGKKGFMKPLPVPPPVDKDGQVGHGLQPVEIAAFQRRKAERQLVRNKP


Columns and labels:
[1] = molecular target: T1, human guanylate cyclase 1 (GC1)
[2] = molecular target: T2, human guanylate cyclase 2 (GC2)
[3] = molecular target: the molecule itself; assay: SEC; analytical SEC on Superose 12 10/300 GL; 42 µM protein, 200 µl injected; 20 mM Tris-HCl pH 7.5, 150 mM KCl, 1 mM DTT; with 500 µM EGTA + 1 mM Mg2+ or 500 µM Ca2+ + 1 mM Mg2+; apparent molecular mass from a calibration curve
[4] = molecular target: T1, human guanylate cyclase 1 (GC1); assay: cell-based or functional assay
[5] = molecular target: T2, human guanylate cyclase 2 (GC2); assay: cell-based or functional assay

Binder	X-fold of Ca2+-dependent regulation of GC1 (cGMP synthesis by HEK293 membranes with 5 µM GCAP1, low Ca2+ <19 nM against high Ca2+ ~30 µM) [1]	X-fold of Ca2+-dependent regulation of GC2 (cGMP synthesis by HEK293 membranes with 5 µM GCAP1, low Ca2+ <19 nM against high Ca2+ ~30 µM) [2]	stoichiometry N [3]	X-fold of Ca2+-dependent regulation of GC1 (cGMP synthesis by HEK293 membranes with 5 µM GCAP1, low Ca2+ <19 nM against high Ca2+ ~30 µM) [4]	X-fold of Ca2+-dependent regulation of GC2 (cGMP synthesis by HEK293 membranes with 5 µM GCAP1, low Ca2+ <19 nM against high Ca2+ ~30 µM) [5]
wild-type human GCAP1-E6S (guanylate cyclase-activating protein 1, myristoylated) (natural protein, myristoylation on the N-terminal Gly residue) MGNVMSGKSVEELSSTECHQWYKKFMTECPSGQLTLYEFRQFFGLKNLSPSASQYVEQMFETFDFNKDGYIDFMEYVAALSLVLKGKVEQKLRWYFKLYDVDGNGCIDRDELLTIIQAIRAINPCSDTTMTAEEFTDTVFSKIDVNGDGELSLEEFIEGVQKDQMLLDTLTRSLDLTRIVRRLQNGEQDEEGADEAAEAAG	37.4	10.8			
GCAP1 N104K-G105R (guanylate cyclase-activating protein 1, myristoylated, on the E6S background) (natural protein, human, UniProt P43080 1-201, looked up, myristoylation on the N-terminal Gly residue, cDNA in pET-11a between NdeI and NheI; E6S introduced to allow myristoylation by yeast NMT; N104K and G105R introduced by site-directed mutagenesis; N104K-G105R is the patient's variant; E6S is a change made by people; Myristoylation on the N-terminal Gly implies that the initiator Met is removed (surmised); No tag is mentioned; also called N104K-G105R GCAP1; double mutant; source: E. coli …) MGNVMSGKSVEELSSTECHQWYKKFMTECPSGQLTLYEFRQFFGLKNLSPSASQYVEQMFETFDFNKDGYIDFMEYVAALSLVLKGKVEQKLRWYFKLYDVDGKRCIDRDELLTIIQAIRAINPCSDTTMTAEEFTDTVFSKIDVNGDGELSLEEFIEGVQKDQMLLDTLTRSLDLTRIVRRLQNGEQDEEGADEAAEAAG			2	0.47	0.6

— publication PMC8070792, “Impaired Ca^2+ Sensitivity of a Novel GCAP1 Variant Causes Cone Dystrophy and Leads to Abnormal Synaptic Transmission Between Photoreceptors and Bipolar Cells” (International Journal of Molecular Sciences, 2021)
